Measurements published in PMC10161063 (Proceedings of the National Academy of Sciences of the …, 2023).
Like-named read-outs stand apart in the source and are kept apart here. Where no end group is shown, it is not given here.

B1: Nvj1^229–321 (domain or fragment)
chain: NREKDCSSSSEVESQSKCRKESTAEPDSLSRDTRTTSSLKSSTSFPISFKGSIDLKSLNQPSSLLHIQVSPTKSSNLDAQVNTEQAYSQPFRY
B2: Halo-tag-conjugated tVac17 (Vac17 residues 290 to 344) (domain or fragment)
chain: SASFFRPSNPTFGTSISNVQVNCHPTVAATMAPSRNGPRISSSKALLSSFIARSD
modifications: also: Halo-tag conjugate
B3: Atg13^567–695 (domain or fragment)
chain: GGNSSTSALNSRRNSLDKSSNKQGMSGLPPIFGGESTSYHHDNKIQKYNQLGVEEDDDDENDRLLNQMGNSATKFKSSISPRSIDSISSSFIKSRIPIRQPYHYSQPTTAPFQAQAKFHKPANKLIDNG

Columns and labels:
Assay in all cases: ITC
[1] = target: T1, preformed Vac8–tVac17 complex (ITC sample cell) (S. cerevisiae, UniProt P39968;P25591)
T1 sequence 1: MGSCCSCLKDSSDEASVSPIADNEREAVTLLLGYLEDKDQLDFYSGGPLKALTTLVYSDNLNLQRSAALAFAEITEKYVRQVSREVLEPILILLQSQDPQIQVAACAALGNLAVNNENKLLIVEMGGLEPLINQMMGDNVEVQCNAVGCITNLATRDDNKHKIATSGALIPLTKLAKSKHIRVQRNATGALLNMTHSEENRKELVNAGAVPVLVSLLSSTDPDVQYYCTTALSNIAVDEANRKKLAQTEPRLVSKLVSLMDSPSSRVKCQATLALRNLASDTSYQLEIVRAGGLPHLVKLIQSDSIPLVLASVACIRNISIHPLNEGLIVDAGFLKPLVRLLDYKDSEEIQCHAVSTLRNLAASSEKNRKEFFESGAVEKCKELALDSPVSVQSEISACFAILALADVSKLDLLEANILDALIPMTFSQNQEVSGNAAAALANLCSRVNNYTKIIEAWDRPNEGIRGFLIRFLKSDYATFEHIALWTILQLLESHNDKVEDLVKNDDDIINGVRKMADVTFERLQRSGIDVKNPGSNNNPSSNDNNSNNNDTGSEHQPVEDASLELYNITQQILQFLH
T1 sequence 2: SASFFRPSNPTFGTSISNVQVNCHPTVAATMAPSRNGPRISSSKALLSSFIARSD

[2] = target: T2, Vac8 (full length, residues 1 to 578) (S. cerevisiae, UniProt P39968 1-578)
T2 sequence: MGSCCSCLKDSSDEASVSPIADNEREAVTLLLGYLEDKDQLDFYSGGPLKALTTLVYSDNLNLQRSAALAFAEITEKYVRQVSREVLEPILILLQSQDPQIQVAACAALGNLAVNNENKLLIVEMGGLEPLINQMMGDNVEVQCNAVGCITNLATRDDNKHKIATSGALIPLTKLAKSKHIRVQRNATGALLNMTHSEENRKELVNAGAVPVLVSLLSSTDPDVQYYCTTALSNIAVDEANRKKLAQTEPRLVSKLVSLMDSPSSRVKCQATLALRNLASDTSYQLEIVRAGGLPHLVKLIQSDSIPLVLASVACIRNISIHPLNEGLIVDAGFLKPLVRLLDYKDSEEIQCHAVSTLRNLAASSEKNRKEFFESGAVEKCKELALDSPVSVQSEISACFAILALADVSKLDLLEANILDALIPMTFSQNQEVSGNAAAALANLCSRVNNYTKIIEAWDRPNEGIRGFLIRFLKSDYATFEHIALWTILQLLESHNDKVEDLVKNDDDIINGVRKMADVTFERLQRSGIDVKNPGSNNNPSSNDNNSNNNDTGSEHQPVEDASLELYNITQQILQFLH

[3] = target: T2, Vac8 (full length, residues 1 to 578); remark: listed apart in the source

Binder	Kd [1]	Kd [2]	Kd [3]
B1	10 µM	0.71 µM	–
B2	–	–	2.53 µM
B3	9.02 µM	–	–
